T1: soluble human EPO receptor (human, UniProt P19235 25-250)
T1 construct: extracellular domain; Printed only as 'soluble human EPO receptor'
T1 sequence (looked up): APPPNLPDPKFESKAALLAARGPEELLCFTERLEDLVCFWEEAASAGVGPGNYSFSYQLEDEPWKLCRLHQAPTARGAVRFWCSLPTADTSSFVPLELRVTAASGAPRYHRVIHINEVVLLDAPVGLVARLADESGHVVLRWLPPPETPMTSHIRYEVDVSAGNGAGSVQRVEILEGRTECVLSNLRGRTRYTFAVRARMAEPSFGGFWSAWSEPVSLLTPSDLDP

T2: peptide SE-3 (human)
T2 construct: also called SE-3 peptide
T2 peptide: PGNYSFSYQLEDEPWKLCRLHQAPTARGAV

T3: full length recombinant human EPO receptor (human, UniProt P19235 25-508)
T3 sequence: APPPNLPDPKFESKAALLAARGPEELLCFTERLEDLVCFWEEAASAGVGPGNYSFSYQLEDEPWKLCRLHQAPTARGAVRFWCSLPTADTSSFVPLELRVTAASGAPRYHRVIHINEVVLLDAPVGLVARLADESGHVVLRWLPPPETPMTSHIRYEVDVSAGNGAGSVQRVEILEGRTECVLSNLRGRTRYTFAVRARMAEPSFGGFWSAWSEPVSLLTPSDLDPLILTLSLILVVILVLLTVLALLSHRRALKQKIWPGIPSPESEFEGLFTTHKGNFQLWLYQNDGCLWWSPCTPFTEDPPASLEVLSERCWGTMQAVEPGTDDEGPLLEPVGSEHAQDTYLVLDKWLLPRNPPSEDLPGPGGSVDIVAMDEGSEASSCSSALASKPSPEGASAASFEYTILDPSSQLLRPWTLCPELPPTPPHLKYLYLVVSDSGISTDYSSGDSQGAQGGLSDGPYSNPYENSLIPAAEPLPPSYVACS

T4: biotinylated EpoR (Abbott CHO cell derived ref.# RB69084:4) (UniProt P19235 25-250, limits assumed, biotinylated with biotin-NHS (sites not given))
T4 construct: also called biotin EpoR; biotin-EpoR
T4 sequence (looked up): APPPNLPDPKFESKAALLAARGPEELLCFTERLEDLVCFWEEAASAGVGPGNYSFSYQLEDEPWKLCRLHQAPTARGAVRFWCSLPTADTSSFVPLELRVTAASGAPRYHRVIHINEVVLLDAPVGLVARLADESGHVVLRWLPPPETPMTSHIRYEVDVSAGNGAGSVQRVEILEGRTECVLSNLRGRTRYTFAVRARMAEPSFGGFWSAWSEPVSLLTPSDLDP


What was measured:
[1] = biological target: T1, soluble human EPO receptor; assay: SPR (Biacore 2000), antibody immobilized on chip, soluble receptor 10-200 nM injected
Protocol: Immobilizations of antibody were performed using the default immobilization program in the Biacore software package. Antibodies were diluted to 10 ug/mL in the supplied acetate buffers to prescreen for the appropriate pH at which to conduct the immobilizations. For immobilizations, antibodies were diluted into the appropriate acetate buffer (10 mM acetate pH 4.0) and coupled directly to the chip surface using standard EDC chemistry at three different protein levels (500, 1000, and 1500 RU). The fourth flow cell was mock coupled with EDC to cap the carboxyl groups and provide a background surface as a negative control.
Binding studies were performed by successive injections of varying concentrations of soluble human EPO receptor over the chip surface (500 RU immobilized protein). […]
Data were fit to the models available in the BiaEvaluation 3.0.2 software package (Biacore). […] Dissociation constants were calculated directly from fitting to the Langmuir binding model. For the bivalent analyte model, the dissociation constants were calculated indirectly using the calculated values for the kinetic dissociation and kinetic association constants, kd and kₐ.

[2] = biological target: T2, peptide SE-3; assay: ELISA on plate-coated peptide SE-3
Protocol: Plates were blocked for 30 minutes at room temperature with 100 ul of 5% BSA in PBS (Gibco (Invitrogen (Carlsbad, Calif.)) Cat.#10010). After removal of blocking solution, 50 ul of Ab12 at 5 ug/ml in PBS with 1% BSA was added to wells and plates were incubated at room temperature for 2 hours. Plates were washed three times using a Skatron 400 Plate Washer with PBS/0.05% Tween 20 and 50 ul of secondary antibody diluted in PBS/0.25% BSA/0.05% Tween 20 added to the wells. For Ab12, goat anti-human IgG (Fc)-HRP (Caltag (Burlingame, Calif.) Cat.#H10507) diluted 1:1000 was used and for Ab 71A (available from the American Type Culture Collection HB 11689, also described in U.S. Pat. No. 6,319,499), goat anti mouse IgG (Fc)-HRP (Jackson Laboratories (West Grove, Pa.) Cat.#115-035-164) diluted 1:5000 was used. After a 1 hour incubation at room temperature, plates were washed three times as before and 50 ul of OPD Developing Reagent (Sigma #P9187) added to each well. Color development was stopped by addition of 50 ul of 1N HCl to the wells and optical density measured at 490 nm on a Victor 1420 Multi-Label Counter.

[3] = biological target: T3, full length recombinant human EPO …; assay: cell-based or functional assay
[4] = biological target: T4, biotinylated EpoR (Abbott CHO cell …); assay: ELISA, HEK 293 supernatant titrated 1:2 on biotin-EpoR captured on streptavidin plates

Row | Binder | Kd [1] | binding result [2] | proliferation of F36E cells after storage of Ab12 at 4 C, compared with the EPO control [3] | Binding (dilution of supernatant) [4]
1 | ABT2-SCX-254 (antibody, V domains shown) VH: QVQLVESGGGVVQPGRSLRLSCAASGFTFSSYGMHWVRQAPGKGLEWVAVIWFDGNNKFYADSVKGRFTISRDNSKNTLYLQMNSLRVEDTAVYYCARGGSYWDYWGQGTLVTVSS VL: DIVMTQTPLFSFVMIGQPASISCRSRQSLVHSDGNTYLNWLQQRPGQPPRLLIYKTSNRFSGVPDRFSGSGAGTDFTLKISRVEAEDVGVYYCMQATQFPITFGQGTRLEIK | – | – | – | 8 dilution 1:n
2 | ABT2-SCX-054 (antibody, V domains shown) VH: QVQLVESGGGVVQPGRSLRLSCAASGFTFSKYGMHWVRQAPGKGLEWVAVLWYDGSNKYYADSVKGRFTISRDNSKNTLYLQMNSLRAEDTAVYYCARGPYYFDYWGQGTLVTVSS VL: not shown | – | – | – | > 64 dilution 1:n
3 | ABT2-SCX-022 (antibody, V domains shown) VH: QVQLVESGGGVVQPGRSLRLSCAASGFTFSSYGMHWVRQAPGKGLEWVVVISYDGSNKYYADSVKGRFTISRDNSKNTLYLQMNSLRVEDTAVYYCARDHGGRYVYDYGMDVWGQGTTVTVSS VL: DIQMTQSPSSVSASVGDRVSITCRASQGISSWLAWYQQKPGKAPTLLIYAASSLQRGVPSRFSGSGSGTDFTLTISSLQPEDFATYFCQQANSFPFTFGPGTKVDIK | – | – | – | > 64 dilution 1:n
4 | ABT2-SCX-267 (antibody, V domains shown) VH: QVQLVESGGGVVQPGRSLRLSCAASGFTFSSYGMHWVRQAPGKGLEWVAVISYDGSNKYYADSVKGRFTISRDNSKNTLYLQMNSLRVEDTAVYYCAKDHGGRYVYDYGMDVWGQGTTVTVSS VL: DIQMTQSPSSVSASVGDRVSITCRASQGIGSWLAWYQQKPGQAPTLLIYAASSLQRGVPSRFSGSGSGTDFTLTINSLQPEDFATYFCQQANSFPFTFGPGTKVDVK | – | – | – | > 64 dilution 1:n

The next lines start with the values.

Row | Kd [1] | binding result [2] | proliferation of F36E cells after storage of Ab12 at 4 C, compared with the EPO control [3] | Binding (dilution of supernatant) [4] | Binder
5 | 17.5 nM | no binding (tested: 5 ug/ml) | ~10 fold | – | Ab12 (antibody, human IgG2, V domains shown, Human antibody from XenoMouse; also called ABT2-SCX-012; AB-ABT2-XG2-012) VH: QVQLQESGPGLVKPSETLSLTCTVSGASISSYYWSWIRQPPGKGLEWIGYIYYSGSTNYNPSLKSRVTISVDTSKNQFSLKLRSVTAADTAVYYCARERLGIGDYWGQGTLVTVSS VL: DIQLTQSPSSLSASVGDRVTITCRASQGIRNDLGWYQQKPGKAPKRLIYAASSLQSGVPSRFSGSGSGTEFTLTISSLQPEDFATYYCLQHNTYPPTFGQGTKVEIK
6 | 13.9 nM | no binding | – | – | Ab198 (antibody, human IgG2, V domains shown, Human antibody from XenoMouse) VH: QVQLVESGGGVVQPGRSLRLSCVASGFTFSSYGMHWVRQAPGKGLEWVAVISYDGSNKYYADSVKGRFTISRDNSKNTLYLQMNSLRVEDTAVYYCARDHGGRYVYDYGMDVWGQGTTVTVSS VL: DIQMTQSPSSVSASIGDRVSITCRASQGISSWLAWYQQKPGKAPTLLIYAASTLQRGVPSRFSGSGSGTDFTLTISSLQPEDFATYFCQQANSFPFTFGPGTKVDIK
